This passage reports Kd results from article PMC9577226, “In vitro selection and optimization of high-affinity aptamer for milk allergen α-lactalbumin and its application in dual-mode detection”.

In this series the target is T1, alpha-lactalbumin (α-La) (Bos taurus (bovine milk), UniProt P00711 20-142).
T1 sequence: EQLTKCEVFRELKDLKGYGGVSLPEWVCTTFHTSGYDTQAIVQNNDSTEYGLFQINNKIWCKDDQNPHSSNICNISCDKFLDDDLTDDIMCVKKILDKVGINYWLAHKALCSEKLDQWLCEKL
Briefly: fluorescence graphene oxide (GO) assay; 50 mM Tris-HCl, 5 mM KCl, 100 mM NaCl, 1 mM MgCl2, pH 7.4; 100 nM FAM-aptamer, 0-400 ug/ml α-La, 1 h in the dark, then GO 15 min; assay temperature not stated (SELEX at 37 °C). To be noted: protein: commercial, label: 5'-FAM.

B1: LA-11 (ssDNA)
DNA: AGCAGCACAGAGGTCAGATGTGGGTGCTGCGAAAGGACGGCATGGGGTCCAAAAGACCCCCCTATGCGTGCTACCGTGAA
As for B1, the Kd (5' stem-loop (predicted)) is 175 ± 28.3 nM.

B2: LA-1 (ssDNA)
DNA: AGCAGCACAGAGGTCAGATGGTGCTGCGAACTTAACGCAAGATAGGCTGGACGCGAGTCCCCTATGCGTGCTACCGTGAA
As to B2, the Kd (5' stem-loop (predicted)) is 92.6 ± 18 nM. Where the note is “hairpin”, AGCAGCACAGAGGTCAGATGGTGCTGCGAA (structured_DNA) [LA-1t] returned a Kd of 14.1 ± 4.15 nM.

B3: LA-10 (ssDNA)
DNA: AGCAGCACAGAGGTCAGATGTAGTGCTGCGAAGTTGGCTCCGGCGGCGTCAGTCTAGCCGCCTATGCGTGCTACCGTGAA
As for B3, for the setting “5' stem-loop (predicted)”, the Kd is 168 ± 28.9 nM.

B4: LA-2 (ssDNA)
DNA: AGCAGCACAGAGGTCAGATGGGCTGCGAACAGTTGCATATGGCGCGACTCTAGGCGGGTCCCTATGCGTGCTACCGTGAA
For the molecule B4, the Kd (5' stem-loop (predicted)) is 101 ± 21.3 nM.

B5: LA-9 (ssDNA)
DNA: AGCAGCACAGAGGTCAGATGCTGGGCTGCGAATGACGAATAAATACGCCGTTTCAGACGGCCTATGCGTGCTACCGTGAA
B5: the Kd (5' stem-loop (predicted)) is 253 ± 32.2 nM.
